Patent US20130085101A1

Target: human Type 1 IGF receptor (human) (UniProt P08069)
Assay: competitive displacement of 125I-Tyr31-IGF-I; FLAG-tagged IGF-1R captured on anti-FLAG plate

Sequence of human Type 1 IGF receptor (human) (P08069 31-1367 limits assumed): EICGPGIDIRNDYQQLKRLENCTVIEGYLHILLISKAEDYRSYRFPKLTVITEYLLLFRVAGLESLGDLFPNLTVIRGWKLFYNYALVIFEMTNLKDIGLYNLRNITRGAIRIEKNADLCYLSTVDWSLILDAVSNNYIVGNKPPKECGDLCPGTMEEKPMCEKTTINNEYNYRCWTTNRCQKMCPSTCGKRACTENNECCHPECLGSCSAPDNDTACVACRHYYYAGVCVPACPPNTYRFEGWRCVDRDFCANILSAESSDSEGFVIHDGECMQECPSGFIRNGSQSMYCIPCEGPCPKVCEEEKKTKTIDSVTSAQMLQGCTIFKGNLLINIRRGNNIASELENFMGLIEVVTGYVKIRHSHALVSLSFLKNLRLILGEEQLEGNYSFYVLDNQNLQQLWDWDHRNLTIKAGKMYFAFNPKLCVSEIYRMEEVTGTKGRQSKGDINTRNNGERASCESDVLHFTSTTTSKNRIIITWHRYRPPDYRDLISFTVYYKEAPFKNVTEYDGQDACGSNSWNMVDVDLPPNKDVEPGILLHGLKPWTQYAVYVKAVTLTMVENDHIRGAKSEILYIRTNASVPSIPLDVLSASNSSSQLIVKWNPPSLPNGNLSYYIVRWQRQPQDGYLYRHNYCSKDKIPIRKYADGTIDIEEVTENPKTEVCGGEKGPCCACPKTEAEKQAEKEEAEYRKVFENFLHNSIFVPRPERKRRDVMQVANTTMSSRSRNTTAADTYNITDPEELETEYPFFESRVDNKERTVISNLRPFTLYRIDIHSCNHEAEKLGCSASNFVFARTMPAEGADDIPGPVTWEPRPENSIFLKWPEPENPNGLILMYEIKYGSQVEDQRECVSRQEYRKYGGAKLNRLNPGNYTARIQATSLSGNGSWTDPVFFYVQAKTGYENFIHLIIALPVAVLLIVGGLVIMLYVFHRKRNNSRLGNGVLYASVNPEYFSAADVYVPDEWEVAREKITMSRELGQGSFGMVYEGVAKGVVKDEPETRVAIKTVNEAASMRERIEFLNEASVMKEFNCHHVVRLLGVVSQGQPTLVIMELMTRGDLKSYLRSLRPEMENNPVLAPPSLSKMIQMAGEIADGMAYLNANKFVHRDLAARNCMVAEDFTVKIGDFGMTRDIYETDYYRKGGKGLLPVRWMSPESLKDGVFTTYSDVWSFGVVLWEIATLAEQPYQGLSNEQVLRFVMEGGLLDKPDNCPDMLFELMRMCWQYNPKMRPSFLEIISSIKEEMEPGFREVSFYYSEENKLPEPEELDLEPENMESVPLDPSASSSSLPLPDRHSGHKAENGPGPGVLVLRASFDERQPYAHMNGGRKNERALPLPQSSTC

lispro-insulin (ligand; other documents disagree on this pair)
relative affinity (percent (of IGF-I for IGF-1R)): 0.27
